Measurements from patent US20060035242A1.
Read-outs that look alike come from different tables or passages of the source.

What was measured:
[1] = molecular target: T1, mouse pathogenic prion protein PrP^Sc (RML, in infected Balb-c mouse brain homogenate) (mouse), P04925; assay: bead pull-down from PrPSc+ mouse brain homogenate; ELISA
[2] = molecular target: T1, mouse pathogenic prion protein PrP^Sc …

T1 sequence (P04925 23-230 limits assumed): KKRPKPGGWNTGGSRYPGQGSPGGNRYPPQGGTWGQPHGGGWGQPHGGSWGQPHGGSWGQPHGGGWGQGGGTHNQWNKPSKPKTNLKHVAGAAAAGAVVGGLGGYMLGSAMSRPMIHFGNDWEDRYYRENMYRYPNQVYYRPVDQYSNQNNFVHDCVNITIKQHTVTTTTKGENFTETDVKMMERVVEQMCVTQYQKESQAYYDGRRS

## GGGAGAAAAGAVVGGLGG (modifications not checked) [peptide reagent of SEQ ID NO:56]
[1]
  ELISA A405 nm: 0.313 A405 nm

## KKKAGAAAAGAVVGGLGG (modifications not checked) [peptide reagent of SEQ ID NO:65]
[1]
  ELISA A405 nm: 0.635 A405 nm

## GGGKKAPKPGG (modifications not checked) [peptide reagent of SEQ ID NO:106]
[2]
  ELISA A405 nm: 0.268 A405 nm

## GGGKKRPKPGGGKKRPKPGG (modifications not checked) [peptide reagent of SEQ ID NO:72 (tandem repeat)]
[1]
  ELISA A405 nm: 0.522 A405 nm

## GGGGPKRKGPK (modifications not checked) [peptide reagent of SEQ ID NO:73]
[1]
  ELISA A405 nm: 1.06 A405 nm

## GGGNKPSKPK (modifications not checked) [peptide reagent of SEQ ID NO:79]
[1]
  ELISA A405 nm: 0.24 A405 nm

## GGGKKKKKKKK (modifications not checked) [peptide reagent of SEQ ID NO:85]
[1]
  ELISA A405 nm: 0.53 A405 nm

## GGGKPSKPK (modifications not checked) [peptide reagent of SEQ ID NO:80]
[1]
  ELISA A405 nm: 0.225 A405 nm

## GGGKKRAKAGG (modifications not checked) [peptide reagent of SEQ ID NO:98]
[1]
  ELISA A405 nm: 1.46 A405 nm

## GGGKKRPAPGG (modifications not checked) [peptide reagent of SEQ ID NO:107]
[2]
  ELISA A405 nm: 0.578 A405 nm

## GGGKARPKPGG (modifications not checked) [peptide reagent of SEQ ID NO:105]
[2]
  ELISA A405 nm: 0.256 A405 nm
